From article PMC6147952, “Acylated-acyl carrier protein stabilizes the Pseudomonas aeruginosa WaaP lipopolysaccharide heptose kinase” (Scientific Reports, 2018)

Molecular target: T1, C-terminal hexa-histidine tagged P. aeruginosa WaaP (1–264) (P. aeruginosa, UniProt Q9HUF7 1-264, selenomethionine substituted)
T1 construct: WaaP, lipopolysaccharide core heptose kinase of Pseudomonas aeruginosa (strains derived from PAO1), residues 1-264; A loop (54-72) is disordered in the crystal; also called WaaP-His; LPS heptose kinase WaaP; source: E. coli BL21(DE3)/pLysS, pET21b-waaP, purified (IMAC, Mono-Q, CM-sepharose, Superdex75); not shown: His6, C-terminal, kept
T1 sequence (looked up): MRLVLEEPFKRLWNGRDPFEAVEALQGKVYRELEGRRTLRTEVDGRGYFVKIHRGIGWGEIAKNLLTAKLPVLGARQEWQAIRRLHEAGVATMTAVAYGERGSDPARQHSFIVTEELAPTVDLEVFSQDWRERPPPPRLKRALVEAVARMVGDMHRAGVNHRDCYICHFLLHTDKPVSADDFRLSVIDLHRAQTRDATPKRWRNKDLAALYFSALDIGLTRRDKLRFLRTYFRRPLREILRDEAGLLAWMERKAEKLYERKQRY
Assay: crystal structure; selenomethionine WaaP-His co-purified with E. coli acyl-ACP; hanging drops at 4 °C, 100 mM HEPES-NaOH pH 7.4, 5% Jeffamine M-600; 2.5 Å
Conditions: both partners purified

B1: E. coli acylated acyl-carrier protein (acyl-ACP) (natural protein, UniProt P0A6A8 1-78, looked up)
chain: MSTIEERVKKIIGEQLGVKQEEVTNNASFVEDLGADSLDTVELVMALEEEFDTEIPDEEAEKITTVQAAIDYINGHQA
modifications: phosphopantetheine on S36 carrying a C16:0 (palmitoyl) or C18:1 acyl chain (palmitoyl modelled in the crystal); selenomethionine
notes: acyl carrier protein of E. coli, 77 amino acids as printed; In the in vitro synthesis experiment (functional row) the ACP was purified E. coli holo-ACP palmitoylated by V. harveyi AasS; Its construct is described only in the Supplementary Information; also called palmitoyl-ACP; source: endogenous, E. coli BL21(DE3)/pLysS, co-purified with WaaP-His
stoichiometry N: 1
